In patent US20220324953A1 (JIANGSU HENGRUI MEDICINE, published 2022):
Substitutions are numbered along the chain they refer to.

T1: human CTGF (antigen of the Biacore assays) (human, UniProt P29279 27-349)
T1 construct: also called antigen human CTGF; human CTGF protein
T1 sequence (looked up): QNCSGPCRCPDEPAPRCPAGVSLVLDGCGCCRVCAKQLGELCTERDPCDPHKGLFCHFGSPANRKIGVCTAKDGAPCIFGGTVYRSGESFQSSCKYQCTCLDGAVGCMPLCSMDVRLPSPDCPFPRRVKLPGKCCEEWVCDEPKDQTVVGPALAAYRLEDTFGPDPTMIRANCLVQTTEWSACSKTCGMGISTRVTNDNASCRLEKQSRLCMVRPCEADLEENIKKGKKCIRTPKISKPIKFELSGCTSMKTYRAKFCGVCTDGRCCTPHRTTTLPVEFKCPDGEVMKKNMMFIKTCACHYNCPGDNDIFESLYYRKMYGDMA

T2: mouse CTGF (antigen of the Biacore assay) (mouse, UniProt P29268 26-348)
T2 construct: also called mouse CTGF protein
T2 sequence (looked up): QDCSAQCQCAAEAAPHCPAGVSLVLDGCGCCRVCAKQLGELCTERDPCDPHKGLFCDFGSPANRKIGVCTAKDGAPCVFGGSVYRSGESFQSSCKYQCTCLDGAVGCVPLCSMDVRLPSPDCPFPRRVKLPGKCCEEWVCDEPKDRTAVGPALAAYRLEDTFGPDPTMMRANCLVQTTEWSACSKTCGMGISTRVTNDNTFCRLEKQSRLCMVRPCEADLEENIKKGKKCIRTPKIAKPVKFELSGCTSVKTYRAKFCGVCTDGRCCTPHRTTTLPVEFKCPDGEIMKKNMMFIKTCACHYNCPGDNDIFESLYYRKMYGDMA

T3: human CTGF protein (R&D, Cat No. 9190-CC) (human, UniProt P29279 27-349)
T3 construct: Bought protein; also called CTGF recombinant protein; CTGF (R&D)
T3 sequence: T1 sequence (looked up) with H57D

B1: chimeric antibody Ch95 (antibody, human IgG1, kappa, V domains shown)
VH: EVLLQQSGPVLVKPGPSVKISCKASGFTFTNYDIHWVKQSHGKSLEWIGLVYPYNGGTAYNQKFKDKATLTFDTSSSTAYMELNSLTSEDSAVYYCARWGLIPGTTSYFDVWGTGTTVTVSS
VL: QIVLSQSPPILSASPGEKVTMTCRASSSVSYIHWYQQKPRSSPKPWIYATSNLASGVPARFSGSGSGTSYSLTISRVEAEDAATYYCQQWNSNPWTFGGGTRLEIKR
B2: chimeric antibody Ch147 (antibody, human IgG1, kappa, V domains shown)
VH: EVQLVESGGGLVQPEGSLKLSCAASGFSFNTYAMNWVRQAPGKGLEWVARIRTKSNNYATYYADSVKDRFTISRDDSESMLYLQMNNLKTEDTAMYYCVETGFAYWDQGTLVTVSA
VL: QIVLTQSPAIMSASPGEKVTITCSASSSVSYMHWFQQKPGTSPKLWIYSTSNLASGVPARFSGSGSGTSYSLTISRMEAEDAATYYCQQRSSYPLTFGAGTKLELKR
B3: Hu95-41wk (antibody, human IgG1, kappa, V domains shown)
VH: EVQLVQSGAEVKKPGASVKVSCKASGFTFTNYDIHWVKQAPGQRLEWIGLVYPYNGGTAYNQKFKDKATLTFDTSASTAYMELSSLRSEDTAVYYCARWGLIPGTTSYFDVWGQGTTVTVSS
VL: EIVLTQSPATLSLSPGERATLSCRASSSVSYIHWYQQKPGQAPRPWIYATSNLASGIPARFSGSGSGTDYTLTISRLEPEDFAVYYCQQWNSNPWTFGGGTKVEIKR
B4: Hu95-21wk (antibody, human IgG1, kappa, V domains shown)
VH: B3 VH with K38R, K67R
VL: B3 VL
B5: Hu95-51yk (antibody, human IgG1, kappa, V domains shown)
VH: B3 VH with K23R, D33A, I48M, N55T, A68V, L101M, T106N
VL: B3 VL
B6: Hu95-31wk (antibody, human IgG1, kappa, V domains shown)
VH: B3 VH with I48M, A68V
VL: B3 VL
B7: Hu95-42wk (antibody, human IgG1, kappa, V domains shown)
VH: B3 VH
VL: B3 VL with A42S, I57V, D69S
B8: chimeric antibody Ch164 (antibody, human IgG1, lambda, V domains shown)
VH: QVQLKQSGPGLVQPSQSLSITCTVSGFSLTTFGVHWIRQSPGKGLEWLGVIWRRGGTDYNAAFMSRLSITKDNSRSHVFFKMTSLQTDDSAIYYCARDGGFDYWGQGTTLTVSS
VL: QAVVTQESALTTSPGGTVILTCRSSIGAVTTSNYANWVQEKPDHLFTGLIGGTSNRAPGVPVRFSGSLIGDKAALTITGAQAEDDAMYFCALWYSTHYVFGGGTKVTVLG

Target: T1, human CTGF (antigen of the Biacore …)
Assay: Biacore, antibody captured on Protein A, CTGF in flow, 1:1 fit
Source text: (§1) A certain amount of each of the test antibodies was affinity-captured with Protein A biosensor chip (Cat. # 29127556, GE), and then a certain concentration of human or mouse CTGF was allowed to flow through the surface of the chip. The reaction signals were detected in real time with Biacore instrument to generate a binding and dissociation curve. After the dissociation was completed in each cycle, the biosensor chip was washed and regenerated with Glycine-HCl regeneration solution pH 1.5 (Cat. # BR-1003-54, GE). The running buffer for the assay was 1×HBS-EP buffer solution (Cat. # BR-1001-88, GE).

Row | Kd [nM] | koff [s⁻¹] | kon [M⁻¹ s⁻¹] | Binder
1 | 3.85 | 0.0302 | 7.85e+06 | B1
2 | 0.466 | 0.00693 | 1.49e+07 | B2
3 | 5.29 | 0.0408 | 7.7e+06 | B3
4 | 7.39 | 0.0303 | 4.09e+06 | B4
5 | 0.0358 | 0.00102 | 2.84e+07 | B5
6 | 5.84 | 0.0326 | 5.59e+06 | B6
7 | 5.74 | 0.0191 | 3.32e+06 | B7
8 | 0.133 | 0.00883 | 6.62e+07 | B8

Target: T4, Cynomolgus CTGF-Fc (fusion protein of cynomolgus CTGF coding region with Fc) (cynomolgus)
T4 construct: also called cyno-CTGF-mFc protein; cyno-CTGF protein with Fc tag
T4 sequence (chain, as listed by the source limits assumed): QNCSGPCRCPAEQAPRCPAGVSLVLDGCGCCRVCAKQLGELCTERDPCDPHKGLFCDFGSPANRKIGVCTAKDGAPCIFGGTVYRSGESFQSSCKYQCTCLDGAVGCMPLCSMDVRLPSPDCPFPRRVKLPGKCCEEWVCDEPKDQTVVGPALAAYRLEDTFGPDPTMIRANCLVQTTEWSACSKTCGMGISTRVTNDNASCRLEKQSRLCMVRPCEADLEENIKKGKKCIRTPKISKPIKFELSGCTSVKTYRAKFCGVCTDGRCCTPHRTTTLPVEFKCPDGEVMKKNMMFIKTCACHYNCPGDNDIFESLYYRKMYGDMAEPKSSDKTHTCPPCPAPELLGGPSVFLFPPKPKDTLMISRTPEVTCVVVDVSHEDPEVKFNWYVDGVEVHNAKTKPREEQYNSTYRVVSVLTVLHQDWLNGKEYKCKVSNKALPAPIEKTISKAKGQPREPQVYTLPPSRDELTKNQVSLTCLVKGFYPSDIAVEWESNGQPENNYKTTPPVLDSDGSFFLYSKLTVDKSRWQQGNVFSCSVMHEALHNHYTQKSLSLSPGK
Assay: ELISA, cyno-CTGF-Fc captured by anti-mFc
Description: The binding activity of anti-monkey CTGF antibody to monkey CTGF protein was tested by ELISA assay. A 96-well microtiter plate was directly coated with anti-mFc protein, and then the cyno-CTGF protein with Fc tag was bound to the plate, and then the antibody was added. The signal strength upon the addition of the antibody was used to determine the binding activity of the antibody to cyno-CTGF. The specific experimental procedures were as follows:
The anti-mFc Protein (Sigma, Cat No. M4280) was diluted with PBS, pH 7.4 (Shanghai Yuanpei, Cat No. B320) buffer to a concentration of 2 μg/ml, which was added into the 96-well microtiter plate (Corning, Cat No. CLS3590-100EA) at 50 μl/well, and incubated in an incubator at 37° C. for 2 hours. The liquid was removed, 250 μl/well blocking solution (5% skim milk (BD skim milk, Cat No.232100) diluted in PBS) was added, and incubated in an incubator at 37° C. for 3 hours or at 4° C. overnight (16-18 hours) for blocking. After the blocking was finished, the blocking solution was removed, the plate was washed for 3 times with PBST buffer (PBS containing 0.1% Tween-20, pH 7.4), 50 μl of 1 μg/ml cyno-CTGF-mFc protein was added into each well, incubated in an incubator at 37° C. for 1 hour, and then the plate was washed for 3 times with PBST buffer (PBS containing 0.1% Tween-20, pH 7.4). 50 μl/well of various concentrations of each of the test antibodies (antibodies purified from hybridoma or humanized antibodies) diluted with sample dilution solution were added, and incubated in an incubator at 37° C. for 1 hours. After the incubation was finished, the plate was washed for 3 times with PBST, 50 μl/well of HRP-labeled goat anti-mouse secondary antibody (Jackson Immuno Research, Cat No. 115-035-003) or goat anti-human secondary antibody (Jackson Immuno Research, Cat No. 109-035-003) diluted with sample dilution solution was added, and incubated at 37° C. for 1 hour. The plate was washed for 5 times with PBST, 50 μl/well of TMB chromogenic substrate (KPL, Cat No. 52-00-03) was added, incubated at room temperature for 5-10 min, and 50 μl/well of 1 M H₂SO₄ was added to stop the reaction. The absorbance value was read by a microplate reader (Molecular Devices, VERSA max) at a wavelength of 450 nm, and the data was analyzed with GraphPad Prism 5. The binding of CTGF antibody to cyno CTGF protein was calculated as EC50 value.

Row | EC50 [nM] | Binder
9 | 0.059 | B5

Target: T2, mouse CTGF (antigen of the Biacore …)
Assay: Biacore, antibody captured on Protein A, mouse CTGF in flow, 1:1 fit
Source text: as §1

Row | Kd [nM] | koff [s⁻¹] | kon [M⁻¹ s⁻¹] | Binder
10 | 1.71 | 0.0235 | 1.38e+07 | B1
11 | 1.23 | 0.0384 | 3.12e+07 | B2
12 | 2.44 | 0.0339 | 1.39e+07 | B3
13 | 3.99 | 0.0211 | 5.29e+06 | B4
14 | 0.0202 | 0.000516 | 2.56e+07 | B5
15 | 2.87 | 0.0225 | 7.84e+06 | B6
16 | 2.42 | 0.0137 | 5.66e+06 | B7
17 | 0.0822 | 0.0101 | 1.23e+08 | B8

Target: T3, human CTGF protein (R&D, Cat No. …)
Assay: ELISA, plate coated with CTGF (R&D 9190-CC)
Description: The binding activity of anti-human CTGF antibody to human CTGF protein was tested by ELISA assay and Biacore. A 96-well microtiter plate was directly coated with the CTGF recombinant protein. The signal strength upon the addition of the antibody was used to determine the binding activity of the antibody to CTGF. The specific experimental procedures were as follows:
The CTGF protein (R&D, Cat No. 9190-CC) was diluted with PBS, pH 7.4 (Shanghai Yuanpei, Cat No. B320) buffer to a concentration of 0.2 μg/ml, 50 μl/well of which was added into the 96-well microtiter plate (Corning, Cat No. CLS3590-100EA), and incubated in an incubator at 37° C. for 2 hours or at 4° C. overnight (16-18 hours). The liquid was removed, 250 μl/ well blocking solution (5% skim milk (BD skim milk, Cat No.232100) diluted in PBS) was added, and incubated in an incubator at 37° C. for 3 hours or at 4° C. overnight (16-18 hours) for blocking. After the blocking was finished, the blocking solution was removed, the plate was washed for 5 times with PBST buffer (PBS containing 0.1% Tween-20, pH 7.4), 50 μl/well of various concentrations of each of the test antibodies (antibodies purified from hybridoma or humanized antibodies) diluted with sample dilution solution were added, and incubated in an incubator at 37° C. for 1 hours. After the incubation was finished, the plate was washed for 3 times with PBST, 50 μl/well of HRP-labeled goat anti-mouse secondary antibody (Jackson Immuno Research, Cat No. 115-035-003) or goat anti-human secondary antibody (Jackson Immuno Research, Cat No. 109-035-003) diluted with sample dilution solution was added, and incubated at 37° C. for 1 hour. The plate was washed for 3 times with PBST, 50 μl/well of TMB chromogenic substrate (KPL, Cat No. 52-00-03) was added, incubated at room temperature for 5-10min, and 50 μl/well of 1 M H₂SO₄ was added to stop the reaction. The absorbance value was read by a microplate reader (Molecular Devices, VERSA max) at a wavelength of 450 nm, and the data was analyzed with GraphPad Prism 5. The binding of CTGF antibody to human CTGF protein was calculated as EC50 value.

Row | EC50 [nM] | Binder
18 | 0.08 | B5
